Experimental findings from PMC9880977 (Computational and Structural Biotechnology Journal, 2023) are described below.

The target in data set [1] is T1, HaLF (Heterobasidion irregulare, UniProt W4KBR7).
T1 sequence (W4KBR7 21-648): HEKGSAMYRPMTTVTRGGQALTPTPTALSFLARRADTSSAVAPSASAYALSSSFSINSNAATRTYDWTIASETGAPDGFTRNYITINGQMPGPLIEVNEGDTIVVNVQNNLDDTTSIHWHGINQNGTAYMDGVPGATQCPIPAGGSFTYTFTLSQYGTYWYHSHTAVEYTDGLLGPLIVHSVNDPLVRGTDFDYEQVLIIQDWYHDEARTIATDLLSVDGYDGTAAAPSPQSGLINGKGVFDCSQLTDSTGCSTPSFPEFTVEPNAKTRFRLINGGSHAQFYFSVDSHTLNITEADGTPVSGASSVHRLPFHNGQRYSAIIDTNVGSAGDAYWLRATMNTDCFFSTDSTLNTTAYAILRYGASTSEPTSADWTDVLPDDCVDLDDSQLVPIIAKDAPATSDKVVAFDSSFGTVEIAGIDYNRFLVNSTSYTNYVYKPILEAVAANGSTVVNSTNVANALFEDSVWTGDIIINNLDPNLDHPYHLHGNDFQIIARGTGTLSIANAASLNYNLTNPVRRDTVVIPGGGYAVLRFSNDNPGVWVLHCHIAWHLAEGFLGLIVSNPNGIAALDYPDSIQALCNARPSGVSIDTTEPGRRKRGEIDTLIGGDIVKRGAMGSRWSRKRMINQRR
The experiment in a line: spectrophotometric oxidation at […] nm, hyperbola or Hill fit. In kind it is biochemical. The conditions noted are these: read-out: HaLF / KM; 100 mM citrate-phosphate pH 4; air O2.

In data set [2] the target is T2, HaLF (Heterobasidion irregulare, UniProt W4KBR7, A247E/F364D).
T2 sequence (W4KBR7 21-648 A247E/F364D): T1 sequence (W4KBR7 21-648)
The description is as above. The conditions noted are these: read-out: HaLFA227E, F344D / KM; 100 mM citrate-phosphate pH 4; air O2. The class given is biochemical.

Another data set deals with COc1cccc(OC)c1O. The experiment in a line: purified protein. The conditions noted are these: 100 mM citrate-phosphate pH 5, air O2. In kind it is biochemical, Heterobasidion irregulare.
For a further data set, the system named is COc1ccccc1O. The experiment in a line: purified protein. The class given is biochemical, Heterobasidion irregulare. The settings on record: 100 mM citrate-phosphate pH 5, air O2.
Data set [3] concerns CCn1c(=NN=c2sc3cc(S(=O)(=O)O)ccc3n2CC)sc2cc(S(=O)(=O)O)ccc21. The experiment in a line: purified protein. The settings on record: 100 mM citrate-phosphate pH 4, air O2.
Substrate in data set [4]: COc1cccc(OC)c1O
The experiment in a line: purified protein. In kind it is biochemical, Heterobasidion irregulare. The conditions noted are these: 100 mM citrate-phosphate pH 5, air O2. This is another data set of the same source.

Substrate in data set [5]: COc1ccccc1O
The experiment in a line: purified protein. In kind it is biochemical, Heterobasidion irregulare. The conditions noted are these: 100 mM citrate-phosphate pH 5, air O2. This is another data set of the same source.

Substrate in data set [6]: CCn1c(=NN=c2sc3cc(S(=O)(=O)O)ccc3n2CC)sc2cc(S(=O)(=O)O)ccc21
The experiment in a line: purified protein. The conditions noted are these: 100 mM citrate-phosphate pH 4, air O2. This is another data set of the same source.

Substrate in data set [7]: Nc1ccccc1N
The experiment in a line: purified protein. The settings on record: 100 mM citrate-phosphate pH 4, air O2.

For `CN(C)c1ccc(N)cc1` [DMPD, N,N-Dimethyl-1,4-phenylenediamine], the values for the Km at HaLF [1] and on HaLF [2] were 8 ± 0.4 mM and 9 ± 0.8 mM, respectively.
The kcat is the number of substrate molecules converted per active site and unit of time at saturation. On to “HaLF (Heterobasidion irregulare TC 32-1; A247E/F364D)”, for which the Km in the data set with COc1cccc(OC)c1O worked out at 3.8 ± 0.3 mM; with COc1ccccc1O it was 31 ± 4 mM; in data set [3], 11 ± 1.5 mM. Moreover, the kcat in the data set with COc1cccc(OC)c1O is 0.87 ± 0.03 s⁻¹; in the data set with COc1ccccc1O it was 0.3 ± 0.02 s⁻¹; in [3], 16 ± 1 s⁻¹.

B1: HaLF (Heterobasidion irregulare TC 32-1) (protein)
chain: T1 sequence (W4KBR7 21-648)
Consider B1, for which the Km in the data set “purified protein [4]” is 0.5 ± 0.05 mM; in the data set “purified protein [5]” it was 20 ± 5 mM; in “purified protein [6]”, 4 ± 0.6 mM; in the data set “purified protein [7]”, 1.6 ± 0.3 mM. Also, the turnover number (kcat) in the data set “purified protein [4]” was determined as 122 ± 4 s⁻¹; in “purified protein [5]” it was 3.7 ± 0.4 s⁻¹; in the data set “purified protein [6]”, 428 ± 14 s⁻¹; in the data set “purified protein [7]”, 26 ± 2 s⁻¹.
